Source: paper PMC11390479, “Visualizing chaperonin function in situ by cryo-electron tomography” (Nature, 2024)

B1: GroES (complex, E. coli, UniProt P0A6F9 1-97, looked up)
chain: MNIRPLHDRVIVKRKEVETKSAGGIVLTGSAAAKSTRGEVLAVGNGRILENGEVKPLDVKVGDIVIFNDGYGVKSEKIDNEEVLIMSESDILAIVEA
notes: GroES, E. coli co-chaperonin, heptamer of 10 kDa subunits; also called GroES 7-mer; lid-shaped cofactor GroES; source: E. coli BL21(DE3) Gold: endogenous or overexpressed from pBAD33 (with groEL, araBAD promoter), in cells
B2: S-adenosylmethionine synthase (MetK) (enzyme, E. coli)
chain: MAKHLFTSESVSEGHPDKIADQISDAVLDAILEQDPKARVACETYVKTGMVLVGGEITTSAWVDIEEITRNTVREIGYVHSDMGFDANSCAVLSAIGKQSPDINQGVDRADPLEQGAGDQGLMFGYATNETDVLMPAPITYAHRLVQRQAEVRKNGTLPWLRPDAKSQVTFQYDDGKIVGIDAVVLSTQHSEEIDQKSLQEAVMEEIIKPILPAEWLTSATKFFINPTGRFVIGGPMGDCGLTGRKIIVDTYGGMARHGGGAFSGKDPSKVDRSAAYAARYVAKNIVAAGLADRCEIQVSYAIGVAEPTSIMVETFGTEKVPSEQLTLLVREFFDLRPYGLIQMLDLLHPIYKETAAYGHFGREHFPWEKTDKAQLLRDAAGLK
notes: S-adenosylmethionine synthase MetK, obligate GroEL substrate of E. coli; 379 C-alpha atoms compared with PDB 7LOO; core loop residues 97-111; In vitro the protein was heat denatured (60 °C, 15 min) in the presence of GroEL before encapsulation; it stands in the chaperonin as a single subunit; also called fMetK (folded MetK); source: E. coli BL21(DE3): overexpressed from pET22b (T7 promoter, …)

Columns and labels:
[1] = target: the molecule itself; experiment: cryo-EM structure; single-particle analysis of in vitro reconstituted GroEL–GroES–MetK complexes with ADP–BeFx (non-cycling); control of GroEL and GroES treated identically without MetK
GroEL [2] = target: T1, GroEL (E. coli, UniProt P0A6F5 1-548); experiment: SEC; Superdex 200 3.2/300 GL; complex formed from 4 uM MetK heat denatured (60 °C, 15 min) with 1 uM GroEL 14-mer in buffer A (20 mM MOPS-NaOH pH 7.4, 200 mM KCl, 10 mM MgCl2, 5 mM DTT) with 30 mM NaF and 5 mM BeSO4, then 2 uM GroES 7-mer and 1 mM ATP; fractions by SDS-PAGE and mass spectrometry (iBAQ); conditions: both partners purified
T1 construct: GroEL, E. coli chaperonin, 57 kDa subunit; two heptameric rings; One molecule for endogenous, pBAD33-expressed and purified GroEL (same untagged protein, same host); also called GroEL 14-mer; GroEL14; source: E. coli BL21(DE3) Gold: endogenous or overexpressed from pBAD33 (araBAD promoter), in cells or in lysate; copies: 14

GroEL [3] = target: T1, GroEL; experiment: cryo-electron tomography with subtomogram averaging; in vitro reconstituted, isolated GroEL–GroES–MetK complexes with ADP–BeFx, imaged with the parameters of the in situ tomography; conditions: both partners purified
GroEL [4] = target: T1, GroEL; experiment: co-IP; GroEL antibody on protein A Sepharose; lysate of MetK-overexpressing cells with apyrase (25 U/ml) to arrest the GroEL cycle; HMK buffer, 1 h; immunoblot for GroEL and MetK and LC-MS/MS (iBAQ); conditions: partners not purified

T1 sequence (P0A6F5 whole entry): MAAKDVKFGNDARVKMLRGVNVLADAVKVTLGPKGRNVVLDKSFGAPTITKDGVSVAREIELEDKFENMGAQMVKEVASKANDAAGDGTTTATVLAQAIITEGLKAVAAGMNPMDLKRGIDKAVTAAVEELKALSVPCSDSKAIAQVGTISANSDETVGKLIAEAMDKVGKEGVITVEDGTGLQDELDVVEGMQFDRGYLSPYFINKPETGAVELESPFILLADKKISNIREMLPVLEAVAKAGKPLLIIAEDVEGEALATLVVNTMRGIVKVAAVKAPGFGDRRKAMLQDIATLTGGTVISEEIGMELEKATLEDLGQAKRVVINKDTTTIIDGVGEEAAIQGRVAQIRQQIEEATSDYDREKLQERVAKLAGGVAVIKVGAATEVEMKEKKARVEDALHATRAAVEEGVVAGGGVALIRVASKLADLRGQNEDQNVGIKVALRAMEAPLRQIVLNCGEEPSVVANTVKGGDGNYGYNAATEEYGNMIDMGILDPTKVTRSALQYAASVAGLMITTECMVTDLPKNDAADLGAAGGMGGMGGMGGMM

Row | Binder | binding result [1] | stoichiometry N (GroEL [2]) | percent of chambers with strong density of folded MetK (class I) (GroEL [3]) | stoichiometry N (GroEL [4])
1 | B1 | binds |  |  | 
2 | B2 |  | ~1.2 MetK per GroEL 14-mer | ~40% | ~1.3 MetK molecules per GroEL complex
